In US20130195908A1:

Tests used:
[1] = biological target: Lyb-2.1 antigen expressed at the surface of B lymphocytes (mouse) (UniProt P21855); assay: cell-based or functional assay
[2] = biological target: MHC class II molecule I-E^d expressed at the surface of A20 cells and mouse splenocytes (mouse) (UniProt P01904); assay: flow cytometry on mouse splenocytes, 10 nM complex, B cells gated with anti-CD19-PE
[3] = biological target: MHC class II molecule I-E^d expressed at the surface of A20 cells and mouse splenocytes (mouse) (UniProt P01904); assay: cell-based or functional assay

UniProt P01904, sequence (P01904 26-255, chain 1 of 2): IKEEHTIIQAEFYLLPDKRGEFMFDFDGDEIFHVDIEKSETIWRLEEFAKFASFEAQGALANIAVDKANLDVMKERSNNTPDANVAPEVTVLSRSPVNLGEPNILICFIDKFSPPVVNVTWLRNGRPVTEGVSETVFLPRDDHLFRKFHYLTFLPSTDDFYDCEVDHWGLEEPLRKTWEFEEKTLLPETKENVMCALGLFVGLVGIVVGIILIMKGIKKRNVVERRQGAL
UniProt P01904, sequence (P01915 32-264, chain 2 of 2, further chain): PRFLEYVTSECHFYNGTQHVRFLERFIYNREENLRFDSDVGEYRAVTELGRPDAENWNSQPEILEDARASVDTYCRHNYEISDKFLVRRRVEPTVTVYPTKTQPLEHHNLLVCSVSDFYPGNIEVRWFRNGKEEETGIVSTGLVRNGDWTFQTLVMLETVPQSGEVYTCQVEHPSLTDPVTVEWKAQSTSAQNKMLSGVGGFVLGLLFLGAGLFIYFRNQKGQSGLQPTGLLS
UniProt P21855, sequence (P21855 whole entry): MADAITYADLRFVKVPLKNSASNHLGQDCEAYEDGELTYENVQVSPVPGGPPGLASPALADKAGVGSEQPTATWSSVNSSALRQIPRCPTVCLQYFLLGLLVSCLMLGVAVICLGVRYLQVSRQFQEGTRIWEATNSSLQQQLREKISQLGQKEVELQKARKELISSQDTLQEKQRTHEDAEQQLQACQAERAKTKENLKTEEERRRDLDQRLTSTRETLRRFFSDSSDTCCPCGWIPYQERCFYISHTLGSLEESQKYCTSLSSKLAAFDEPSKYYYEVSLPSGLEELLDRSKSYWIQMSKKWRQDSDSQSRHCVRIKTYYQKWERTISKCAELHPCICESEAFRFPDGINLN

| Substance | amount of ZZDTR-BD needed to reach the same level of T4B6 stimulation (IL-2 secretion), A20 cells as APCs, against free ZZDTR-BD [1] [times lower] | percent of B lymphocytes labeled [2] [%] | amount of ZZDTR-BD needed to reach the same level of T4B6 stimulation (IL-2 secretion), A20 cells as APCs, against free ZZDTR-BD [3] [times lower] | amount of ZZDTR-BD needed to reach the same level of T4B6 stimulation (IL-2 secretion), splenocytes as APCs, against free ZZDTR-BD [3] [times lower] |
| --- | --- | --- | --- | --- |
| 10-1.D.2/ZZDTR-BD complex (mouse monoclonal IgG2a 10-1.D.2, anti-Lyb-2.1, complexed with ZZDTR-BD) | 3.8 | – | – | – |
| 14-4-4S/ZZDTR-BD complex (mouse monoclonal IgG2a 14-4-4S, anti-MHC class II I-E^d, complexed with ZZDTR-BD) | – | 68.5 | 13.4 | 5.2 |
